A word on the Kd: it is the constant that tells how readily two partners part at equilibrium. The term IC50 denotes the concentration needed to halve the response being measured.

The results in this text go back to US20020147133A1.

The target in assay [1] is recombinant FKBP52 with a tag of six histidine residues at its N-terminus (UniProt Q02790). Briefly: isothermal titration calorimetry, 25 C. For orientation: Isothermal titration calorimetry measures the heat released or taken up as one component is titrated into another.
Assay [2] concerns the target SH2 domain of the tyrosine kinase Fyn (UniProt P06241). Briefly: isothermal titration calorimetry, 25 C.
The target in assay [3] is recombinant FKBP12 (UniProt P62942). Briefly: isothermal titration calorimetry, 25 C.
The target in assay [4] is SH2 domain of the tyrosine kinase Fyn (UniProt P06241). Description: competition with pYEEI beads for radioactive Fyn SH2 domain (200 nM), no FKBP52.
Assay [5] has the same target. Briefly: isothermal titration calorimetry, Fyn SH2 domain binding to the FKpYEEI-FKBP52 complex.
Assay [6] has the same target. Description: competition with pYEEI beads for radioactive Fyn SH2 domain (200 nM), FKBP52 at 4.5 uM.
Assay [7] shares this target. Briefly: ratio of Kd values, isothermal titration calorimetry.
For assay [8] the target is unchanged. Briefly: ratio of IC50 values, competition with pYEEI beads.
In assay [9] the target is phosphotyrosine peptide NH2-pYEEI-COOH. Briefly: radioactive SH2 domain on an increased amount of pYEEI Affi-Gel beads.
The target is the same in assay [10]. Briefly: radioactive SH2 domain (200 nM) on pYEEI Affi-Gel beads, scintillation counting.
Assay [11] addresses SH2 domain of the tyrosine kinase Fyn (UniProt P06241). Description: competition with pYEEI beads for radioactive Fyn SH2 domain (200 nM), no FKBP12.
For assay [12] the target is unchanged. Description: isothermal titration calorimetry, Fyn SH2 domain binding to the SLFpYEEI-FKBP12 complex.
Assay [13] has the same target. Briefly: competition with pYEEI beads for radioactive Fyn SH2 domain (200 nM), FKBP12 at 20 uM.
Assay [14] has the same target. Description: competition of free pYEEI with pYEEI beads for radioactive Fyn SH2 domain (200 nM).

Sequence of SH2 domain of the tyrosine kinase Fyn (P06241 143-248): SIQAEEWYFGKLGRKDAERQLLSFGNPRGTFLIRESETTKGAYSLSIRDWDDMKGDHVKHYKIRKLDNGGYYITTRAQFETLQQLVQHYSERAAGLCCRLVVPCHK
Sequence of recombinant FKBP52 with a tag of six histidine residues at its N-terminus (Q02790 whole entry, the tested form may be a part): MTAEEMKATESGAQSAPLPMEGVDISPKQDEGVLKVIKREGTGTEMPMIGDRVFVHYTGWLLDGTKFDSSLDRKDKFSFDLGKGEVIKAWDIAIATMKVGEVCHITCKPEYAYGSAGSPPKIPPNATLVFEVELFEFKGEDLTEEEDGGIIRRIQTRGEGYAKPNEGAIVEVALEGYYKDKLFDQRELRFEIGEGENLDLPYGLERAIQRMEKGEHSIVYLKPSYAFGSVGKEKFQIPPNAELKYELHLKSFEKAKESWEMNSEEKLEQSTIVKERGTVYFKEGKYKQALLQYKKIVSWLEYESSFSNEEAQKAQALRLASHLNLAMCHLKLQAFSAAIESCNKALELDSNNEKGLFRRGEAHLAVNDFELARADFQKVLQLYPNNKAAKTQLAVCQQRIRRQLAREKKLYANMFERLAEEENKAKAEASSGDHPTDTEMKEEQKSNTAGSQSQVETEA
Sequence of N-terminal SH2 domain of PLC (P19174 550-657): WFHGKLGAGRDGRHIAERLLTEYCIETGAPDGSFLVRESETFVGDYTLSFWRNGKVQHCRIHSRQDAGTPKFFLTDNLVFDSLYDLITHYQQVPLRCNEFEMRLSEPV
Sequence of recombinant FKBP12 (P62942 whole entry, the tested form may be a part): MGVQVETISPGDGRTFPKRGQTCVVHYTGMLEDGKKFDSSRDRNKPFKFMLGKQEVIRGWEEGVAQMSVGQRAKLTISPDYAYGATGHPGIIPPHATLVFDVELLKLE

On to “FKpYEEI (pYEEI peptide chemically linked to FK506)”, for which the dissociation constant Kd in [1] was 150 nM; in assay [2], 520 nM; in assay [3], 45 nM. Also, the IC50 in [4] was 750 nM.

Substance “FKpYEEI-FKBP52 complex (binary complex of FKBP52 and FKpYEEI) (from UniProt Q02790 1-459)” returned a Kd in [5] of 130 nM. Moreover, in [6], the IC50 stood at 250 nM. The fold enhancement of Kd against FKpYEEI alone in [7] was 4 fold. Besides, in [8], the fold enhancement of affinity against FKpYEEI alone was found to be 3 fold and the fold enhancement of affinity against pYEEI was determined as 4.4 fold.

In the case of N-terminal SH2 domain of PLC, the percent of SH2 domain bound to the beads in assay [9] was 40%; in [10], 25%.

Take “SH2 domain of the tyrosine kinase Fyn (from UniProt P06241 143-248)”: the values for the percent of SH2 domain bound to the beads in assay [9] and in [10] were 80% and 65%, respectively.

For “SH2 domain of the tyrosine kinase Lck (from UniProt P06239 120-226)”, the percent of SH2 domain bound to the beads stood at 25% in [9] and 15% in assay [10].

For the substance “SLFpYEEI (SLF coupled to the N-terminus of the pYEEI peptide)”, the values for the Kd in assay [1], in assay [2] and in [3] were 5000 nM, 183 nM and 61 nM, respectively. The IC50 in assay [11] was 250 nM.

“SLFpYEEI-FKBP12 complex (binary complex of SLFpYEEI and FKBP12) (from UniProt P62942 1-108)”: in assay [12], the Kd stood at 1500 nM. The concentration for half-maximal inhibition (IC50) in [13] worked out at 1500 nM. Further, the fold reduction of affinity against SLFpYEEI alone in assay [8] was 6 fold.

As to phosphotyrosine peptide NH2-pYEEI-COOH, in assay [14], the IC50 was 1100 nM.
